Results: the supplement of paper PMC10567573

B1: RIPK4 (parent)
chain: RERMELLEEAKKMEMAKFRYILPV
B2: HDAC6 (parent)
chain: QEGLLDRCVSFQARFAEKEELMLV

Variants of: B1
Experiment: protein stability index of a GFP-peptide fusion (GPS, HEK-293T) (PSI 1-6); higher = more stable
Conditions: c terminus: a fixed tail appended
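Also: lentivirally expressed fusions sorted by FACS into six bins by GFP to DsRed ratio, PSI derived from sequencing read proportions per bin multiplied by bin number.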

Protein stability index of substitutions, site by site:
E5: H 1.99, G 2.6, I 2.26, A 2.9, F 2.81, C 2.63
R1: I 3.29, T 3.13, A 3.83, E 3.99, N 4.13, M 3.98, W 2.5, P 3.85, H 4.5, L 4.16, F 3.47, C 2.88, D 4.22, G 3.79, Q 3.9, V 3.83, K 4.16, Y 2.9, S 3.53
R3: L 2.3, M 2.7, I 2.39, H 3.89, F 2.58, G 2.58, W 1.73, D 3.63, Y 3.25, E 4.38, Q 4.19, S 3.85, V 2.42, T 3.68, A 3.48, C 3.26, N 3.18, P 3.84
E2: L 2.57, M 2.37, Y 2.74, A 2.42, S 2.77, H 2.75, Q 2.31, V 2.81, C 1.34, I 1.93, D 3.21, R 2.67, G 2.57, F 2.27, P 3.75, N 3.59, W 1.47
M4: T 3.53, W 2.81, Q 3.76, A 3.99, Y 2.82, E 3.67, N 3.94, I 3.08, G 5.3, P 3.8, H 3.21, C 3.69, S 3.59, D 4.17, V 2.88, K 3.74

Variants of: B2
Experiment: as above
Conditions: c terminus: a fixed tail appended

Protein stability index, by site and new letter:
Q12: H 2.81, T 1.99, S 1.6, A 1.66, I 2.57, L 1.52, C 2.1, R 1.58, G 2.77, W 1.08, N 2.65, K 2, D 1.87, F 1.69, E 1.83, V 1.14, M 2.02, P 2.47
E17: C 1.73, W 1.02, G 1.95, K 1.72, A 2.05, P 1.73, I 1.58, Y 1.67, N 1.68, S 1.7, V 1.21, L 1.85, D 2.14, T 1.46, M 1.4, Q 2.05, H 1.49, R 2.03, F 1.53
L23: M 1.83, T 2.98, Q 2.32, K 3.55, N 3.82, A 3.4, H 2.57, E 3.49, C 2.59, P 3.45, D 4.37, G 3.93, S 3.25, F 1.96, I 1.85, Y 2.14, V 1.93, R 3.35, W 1.89
A13: I 1.47, M 1.89, W 2.2, R 1.93, D 2.44, T 2.03, Y 1.76, K 2.47, V 1.39, S 1.57, L 1.38, C 1.4, Q 2.08, N 1.89, E 1.31, P 2.05, F 2.2, G 1.85, H 2.59
V24: T 3.82, W 2.21, I 2.17, E 4.18, Q 3.76, N 3.42, H 2.82, L 2.21, P 4.13, Y 2.27, C 2.63, S 3.59, M 2.05, K 3.74, F 1.85, R 3.31, D 4.32, G 3.62, A 3.83
A16: W 1.03, I 2.31, D 1.84, Q 1.93, E 2.6, Y 1.65, G 1.62, F 1.75, L 1.07, M 1.87, P 2.11, V 1.5, N 1.97, C 1.48, S 2.21, H 1.41, T 1.74, K 2.38, R 2.62
E19: H 2.14, V 1.49, R 1.84, K 1.9, S 2.14, D 1.76, T 2.87, Y 1.53, G 2.6, Q 1.67, P 2.18, N 1.6, I 2, M 1.58, W 2.08, F 1.98, A 1.76, C 1.63, L 1.49
F15: C 2.36, L 2.23, D 3.55, Q 2.55, K 3.13, H 2.4, N 3.04, S 2.9, W 2.36, P 3.02, G 2.54, T 2.81, I 1.56, R 2.58, E 2.91, M 2.16, Y 1.62, V 2.49, A 2.33
L21: E 3.16, D 4.3, Q 2.88, M 2.14, H 2.45, G 3.76, F 1.98, N 3.78, R 3.06, I 1.59, C 2.18, V 2.14, P 3.29, Y 2.17, K 3.17, S 4.16, W 2.03, T 2.73, A 4.12
F11: I 2, L 1.71, R 2.66, H 2.37, N 2.93, V 2.17, P 2.73, K 2.33, M 2.17, Q 2.1, Y 2.03, T 2.83, W 1.75, S 2.53
R14: A 1.4, E 2.57, Y 2.24, S 1.9, Q 1.71, C 2.21, K 2.06, I 2.35, T 2.14, D 2.54, F 1.56, G 2.07, P 1.97, V 1.38, N 2.41, M 1.66, L 1.7, H 2.27
E20: Q 1.86, K 1.96, W 2.02, H 2.52, V 1.72, M 1.37, I 1.18, G 1.74, P 2.01, Y 1.67, D 2.32, R 1.69, L 1.62, N 1.84, S 2.24, A 2.37, F 2.98, T 2.14
K18: Y 1.78, L 1.49, Q 2.17, T 2.66, W 2.1, G 1.63, D 1.79, S 1.75, E 2.38, N 1.77, P 2.07, R 1.45, V 1.96, I 2.6, F 2.51, H 1.44, M 2.04, C 2.17, A 1.98
M22: Y 2.03, K 3.31, R 3.14, G 3.27, W 1.95, H 2.59, T 3.2, F 1.88, Q 2.81, N 3.84, I 1.92, C 3.01, V 1.92, P 3.99, E 4.27, L 2.03, D 4.03, A 2.93, S 3.43
